Reference: paper PMC3737171, “Genetic Selection for Constitutively Trimerized Human HSF1 Mutants Identifies a Role for Coiled-Coil Motifs in DNA Binding” (G3: Genes|Genomes|Genetics, 2013)
Changes are numbered by the printed parent chain. Names and notes keep the numbering of the source.

B1: human HSF1 M161I, expressed in yeast (natural protein, UniProt Q00613 1-529, looked up)
chain: MDLPVGPGAAGPSNVPAFLTKLWTLVSDPDTDALICWSPSGNSFHVFDQGQFAKEVLPKYFKHNNMASFVRQLNMYGFRKVVHIEQGGLVKPERDDTEFQHPCFLRGQEQLLENIKRKVTSVSTLKSEDIKIRQDSVTKLLTDVQLMKGKQECMDSKLLAIKHENEALWREVASLRQKHAQQQKVVNKLIQFLISLVQSNRILGVKRKIPLMLNDSGSAHSMPKYSRQFSLEHVHGSGPYSAPSPAYSSSSLYAPDAVASSGPIISDITELAPASPMASPGGSIDERPLSSSPLVRVKEEPPSPPQSPRVEEASPGRPSSVDTLLSPTALIDSILRESEPAPASVTALTDARGHTDTEGRPPSPPPTSTPEKCLSVACLDKNELSDHLDAMDSNLDNLQTMLSSHGFSVDTSALLDLFSPSVTVPDMSLPDLDSSLASIQELLSPQEPPRPPEAENSSPDSGKQLVHYTAQPLFLLDPGSVDTGSNDLPVLFELGEGSYFSEGDGFAEDPTISLLTGSEPPKAKDPTVS
notes: human heat shock transcription factor 1 (HSF1) with M161I in LZ1-3; Found by random mutagenesis in E. coli XL-1 Red; also called M161I mutant; source: S. cerevisiae PS145, mutant of plasmid pRS423GPD-hHSF1, in total protein extract
B2: human HSF1 K178E, expressed in yeast (natural protein, UniProt Q00613 1-529, looked up)
chain: B1 chain with I161M, K178E
notes: human heat shock transcription factor 1 (HSF1) with K178E between LZ1/2 and LZ3; Found by random mutagenesis in E. coli XL-1 Red; also called K178E mutant; source: S. cerevisiae PS145, mutant of plasmid pRS423GPD-hHSF1, in total protein extract
B3: human HSF1 L189P, expressed in yeast (natural protein, UniProt Q00613 1-529, looked up)
chain: B1 chain with I161M, L189P
notes: human heat shock transcription factor 1 (HSF1) with L189P in LZ3; Found by random mutagenesis in E. coli XL-1 Red; also called L189P HSF1 mutant; source: S. cerevisiae PS145, mutant of plasmid pRS423GPD-hHSF1, in total protein extract
B4: human HSF1 L402P, expressed in hsf1-/- mouse embryonic fibroblasts (natural protein, UniProt Q00613 1-529, looked up)
chain: B1 chain with I161M, L402P
notes: human heat shock transcription factor 1 (HSF1) with L402P in LZ4; also called L402P mutant; source: hsf1-/- MEFs, transfected, in protein extract
B5: human HSF1 M161I, expressed in hsf1-/- mouse embryonic fibroblasts (natural protein, UniProt Q00613 1-529, looked up)
chain: B1 chain
notes: human heat shock transcription factor 1 (HSF1) with M161I in LZ1-3; also called M161I mutant; source: hsf1-/- MEFs, transfected, in protein extract
B6: human HSF1 H179Y, expressed in hsf1-/- mouse embryonic fibroblasts (natural protein, UniProt Q00613 1-529, looked up)
chain: B1 chain with I161M, H179Y
notes: human heat shock transcription factor 1 (HSF1) with H179Y between LZ1/2 and LZ3; also called H179Y mutant; source: hsf1-/- MEFs, transfected, in protein extract
B7: human HSF1 L189P, expressed in hsf1-/- mouse embryonic fibroblasts (natural protein, UniProt Q00613 1-529, looked up)
chain: B1 chain with I161M, L189P
notes: human heat shock transcription factor 1 (HSF1) with L189P in LZ3; also called L189P HSF1 mutant; source: hsf1-/- MEFs, transfected, in protein extract
B8: human HSF1 H179Y, expressed in yeast (natural protein, UniProt Q00613 1-529, looked up)
chain: B1 chain with I161M, H179Y
notes: human heat shock transcription factor 1 (HSF1) with H179Y between LZ1/2 and LZ3; Found by random mutagenesis in E. coli XL-1 Red; also called H179Y mutant; source: S. cerevisiae PS145, mutant of plasmid pRS423GPD-hHSF1, in total protein extract
B9: human HSF1 L402P, expressed in yeast (natural protein, UniProt Q00613 1-529, looked up)
chain: B1 chain with I161M, L402P
notes: human heat shock transcription factor 1 (HSF1) with L402P in LZ4; Found by random mutagenesis in E. coli XL-1 Red; also called L402P mutant; source: S. cerevisiae PS145, mutant of plasmid pRS423GPD-hHSF1, in total protein extract
B10: human HSF1 K178E, expressed in hsf1-/- mouse embryonic fibroblasts (natural protein, UniProt Q00613 1-529, looked up)
chain: B1 chain with I161M, K178E
notes: human heat shock transcription factor 1 (HSF1) with K178E between LZ1/2 and LZ3; also called K178E mutant; source: hsf1-/- MEFs, transfected, in protein extract

Key:
[1] = target: wild-type human HSF1, expressed in hsf1-/- mouse embryonic fibroblasts (human) (UniProt Q00613); assay: cross-linking; EGS cross-linking of extracts of transfected hsf1-/- MEFs, without stress and after heat stress; immunoblot for HSF1
[2] = target: the molecule itself; assay: cross-linking; EGS cross-linking of total protein extracts of yeast PS145 grown on galactose medium; SDS-PAGE and immunoblot with an HSF1-specific antibody
[3] = target: the molecule itself; assay: cross-linking; EGS cross-linking of extracts of transfected hsf1-/- MEFs, without stress and after heat stress; immunoblot for HSF1

Molecule	stoichiometry N [2]	stoichiometry N [3]	further results
wild-type human HSF1, expressed in hsf1-/- mouse embryonic fibroblasts (from UniProt Q00613 1-529) (natural protein)	–	–	stoichiometry N [1]: 3
B1	3	–	–
B2	3	–	–
B3	3	–	–
B4	–	3	–
B5	–	3	–
B6	–	3	–
B7	–	3	–
B8	3	–	–
B9	3	–	–
B10	–	3	–
